Data published in patent publication US20220411483A1 (Chugai, published 2022).

Experiments:
FcgRIIaR = biological target: T1, FcgRIIaR (human, UniProt P12318 34-217); experiment: SPR, amount bound per captured antibody
T1 construct: extracellular domain; also called FcγRIIa R type; FcγRIIa (R type)
T1 sequence (looked up): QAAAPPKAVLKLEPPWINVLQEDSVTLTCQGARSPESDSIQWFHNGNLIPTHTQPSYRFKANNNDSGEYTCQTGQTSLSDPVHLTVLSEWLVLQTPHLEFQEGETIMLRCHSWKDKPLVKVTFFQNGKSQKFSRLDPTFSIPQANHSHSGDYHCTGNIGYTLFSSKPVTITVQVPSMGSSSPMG

FcgRIIb = biological target: T2, FcgRIIb (human, UniProt P31994 43-217); experiment: SPR, amount bound per captured antibody
T2 construct: extracellular domain; also called FcγRIIb
T2 sequence (looked up): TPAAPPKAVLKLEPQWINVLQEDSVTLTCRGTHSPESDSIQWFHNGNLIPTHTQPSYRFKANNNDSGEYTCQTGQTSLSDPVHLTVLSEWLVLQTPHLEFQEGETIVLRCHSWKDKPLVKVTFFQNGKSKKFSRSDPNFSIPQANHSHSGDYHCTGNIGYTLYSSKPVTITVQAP

Row | Relative FcgRIIaR-binding Activity (FcgRIIaR) [IL6R-G1d/IL6R-L=100] | Relative FcgRIIb-binding Activity (FcgRIIb) [IL6R-G1d/IL6R-L=100] | Binder
1 | 6.4 | 71.9 | IL6R-P635/IL6R-L (antibody, human IgG1, kappa) heavy: QVQLQESGPGLVKPSETLSLTCAVSGHSISHDHAWSWVRQPPGEGLEWIGFISYSGITNYNPSLQGRVTISRDNSKNTLYLQMNSLRAEDTAVYYCARSLARTTAMDYWGEGTLVTVSSASTKGPSVFPLAPSSKSTSGGTAALGCLVKDYFPEPVTVSWNSGALTSGVHTFPAVLQSSGLYSLSSVVTVPSSSLGTQTYICNVNHKPSNTKVDKKVEPKSCDKTHTCPPCPAPDLLGGDSVFLFPPKPKDTLMISRTPEVTCVVIDVKEEDGEVKFNWYVDGVEVHNAKTKPREEQYNSTYRVVSVLTVLHQDWLNGKEYKCKVSNKALPAPIEKTISKAKGQPREPQVYTLPPSRDELTKNQVSLTCLVKGFYPSDIAVEWESNGQPENNYKTTPPVLDSDGSFFLYSKLTVDKSRWQQGNVFSCSVMHEALHNHYTQKSLSLSP light: not shown
2 | 78.3 | 176 | IL6R-P638/IL6R-L (antibody, human IgG1, kappa) heavy: QVQLQESGPGLVKPSETLSLTCAVSGHSISHDHAWSWVRQPPGEGLEWIGFISYSGITNYNPSLQGRVTISRDNSKNTLYLQMNSLRAEDTAVYYCARSLARTTAMDYWGEGTLVTVSSASTKGPSVFPLAPSSKSTSGGTAALGCLVKDYFPEPVTVSWNSGALTSGVHTFPAVLQSSGLYSLSSVVTVPSSSLGTQTYICNVNHKPSNTKVDKKVEPKSCDKTHTCPPCPAPDHLGDDSVFLFPPKPKDTLMISRTPEVTCVVIDVAEEDGEVKFNWYVDGVEVHNAKTKPREEQDNSTYRVVSVLTVLHQDWLNGKEYKCKVSNKALPRPIEKTISKAKGQPREPQVYTLPPSRDELTKNQVSLTCLVKGFYPSDIAVEWESNGQPENNYKTTPMVLDSDGSFFLYSKLTVDKSRWQQGNVFSCSVMHEALHNHYTQKSLSLSP light: not shown
3 | 109 | 184 | IL6R-P639/IL6R-L (antibody, human IgG1, kappa) heavy: QVQLQESGPGLVKPSETLSLTCAVSGHSISHDHAWSWVRQPPGEGLEWIGFISYSGITNYNPSLQGRVTISRDNSKNTLYLQMNSLRAEDTAVYYCARSLARTTAMDYWGEGTLVTVSSASTKGPSVFPLAPSSKSTSGGTAALGCLVKDYFPEPVTVSWNSGALTSGVHTFPAVLQSSGLYSLSSVVTVPSSSLGTQTYICNVNHKPSNTKVDKKVEPKSCDKTHTCPPCPAPDNLGDDSVFLFPPKPKDTLMISRTPEVTCVVIDVAEEDGEVKFNWYVDGVEVHNAKTKPREEQDNSTYRVVSVLTVLHQDWLNGKEYKCKVSNKALPRPIEKTISKAKGQPREPQVYTLPPSRDELTKNQVSLTCLVKGFYPSDIAVEWESNGQPENNYKTTPMVLDSDGSFFLYSKLTVDKSRWQQGNVFSCSVMHEALHNHYTQKSLSLSP light: not shown
4 | 75.1 | 178 | IL6R-P640/IL6R-L (antibody, human IgG1, kappa) heavy: QVQLQESGPGLVKPSETLSLTCAVSGHSISHDHAWSWVRQPPGEGLEWIGFISYSGITNYNPSLQGRVTISRDNSKNTLYLQMNSLRAEDTAVYYCARSLARTTAMDYWGEGTLVTVSSASTKGPSVFPLAPSSKSTSGGTAALGCLVKDYFPEPVTVSWNSGALTSGVHTFPAVLQSSGLYSLSSVVTVPSSSLGTQTYICNVNHKPSNTKVDKKVEPKSCDKTHTCPPCPAPDKLGDDSVFLFPPKPKDTLMISRTPEVTCVVIDVAEEDGEVKFNWYVDGVEVHNAKTKPREEQDNSTYRVVSVLTVLHQDWLNGKEYKCKVSNKALPRPIEKTISKAKGQPREPQVYTLPPSRDELTKNQVSLTCLVKGFYPSDIAVEWESNGQPENNYKTTPMVLDSDGSFFLYSKLTVDKSRWQQGNVFSCSVMHEALHNHYTQKSLSLSP light: not shown
5 | 61.5 | 170 | IL6R-P641/IL6R-L (antibody, human IgG1, kappa) heavy: QVQLQESGPGLVKPSETLSLTCAVSGHSISHDHAWSWVRQPPGEGLEWIGFISYSGITNYNPSLQGRVTISRDNSKNTLYLQMNSLRAEDTAVYYCARSLARTTAMDYWGEGTLVTVSSASTKGPSVFPLAPSSKSTSGGTAALGCLVKDYFPEPVTVSWNSGALTSGVHTFPAVLQSSGLYSLSSVVTVPSSSLGTQTYICNVNHKPSNTKVDKKVEPKSCDKTHTCPPCPAPDRLGDDSVFLFPPKPKDTLMISRTPEVTCVVIDVAEEDGEVKFNWYVDGVEVHNAKTKPREEQDNSTYRVVSVLTVLHQDWLNGKEYKCKVSNKALPRPIEKTISKAKGQPREPQVYTLPPSRDELTKNQVSLTCLVKGFYPSDIAVEWESNGQPENNYKTTPMVLDSDGSFFLYSKLTVDKSRWQQGNVFSCSVMHEALHNHYTQKSLSLSP light: not shown
6 | 103 | 175 | IL6R-P642/IL6R-L (antibody, human IgG1, kappa) heavy: QVQLQESGPGLVKPSETLSLTCAVSGHSISHDHAWSWVRQPPGEGLEWIGFISYSGITNYNPSLQGRVTISRDNSKNTLYLQMNSLRAEDTAVYYCARSLARTTAMDYWGEGTLVTVSSASTKGPSVFPLAPSSKSTSGGTAALGCLVKDYFPEPVTVSWNSGALTSGVHTFPAVLQSSGLYSLSSVVTVPSSSLGTQTYICNVNHKPSNTKVDKKVEPKSCDKTHTCPPCPAPDLLQDDSVFLFPPKPKDTLMISRTPEVTCVVIDVAEEDGEVKFNWYVDGVEVHNAKTKPREEQDNSTYRVVSVLTVLHQDWLNGKEYKCKVSNKALPRPIEKTISKAKGQPREPQVYTLPPSRDELTKNQVSLTCLVKGFYPSDIAVEWESNGQPENNYKTTPMVLDSDGSFFLYSKLTVDKSRWQQGNVFSCSVMHEALHNHYTQKSLSLSP light: not shown
7 | 58.7 | 178 | IL6R-P643/IL6R-L (antibody, human IgG1, kappa) heavy: QVQLQESGPGLVKPSETLSLTCAVSGHSISHDHAWSWVRQPPGEGLEWIGFISYSGITNYNPSLQGRVTISRDNSKNTLYLQMNSLRAEDTAVYYCARSLARTTAMDYWGEGTLVTVSSASTKGPSVFPLAPSSKSTSGGTAALGCLVKDYFPEPVTVSWNSGALTSGVHTFPAVLQSSGLYSLSSVVTVPSSSLGTQTYICNVNHKPSNTKVDKKVEPKSCDKTHTCPPCPAPDLLGRDSVFLFPPKPKDTLMISRTPEVTCVVIDVAEEDGEVKFNWYVDGVEVHNAKTKPREEQDNSTYRVVSVLTVLHQDWLNGKEYKCKVSNKALPRPIEKTISKAKGQPREPQVYTLPPSRDELTKNQVSLTCLVKGFYPSDIAVEWESNGQPENNYKTTPMVLDSDGSFFLYSKLTVDKSRWQQGNVFSCSVMHEALHNHYTQKSLSLSP light: not shown
8 | 34 | 171 | IL6R-P644/IL6R-L (antibody, human IgG1, kappa) heavy: QVQLQESGPGLVKPSETLSLTCAVSGHSISHDHAWSWVRQPPGEGLEWIGFISYSGITNYNPSLQGRVTISRDNSKNTLYLQMNSLRAEDTAVYYCARSLARTTAMDYWGEGTLVTVSSASTKGPSVFPLAPSSKSTSGGTAALGCLVKDYFPEPVTVSWNSGALTSGVHTFPAVLQSSGLYSLSSVVTVPSSSLGTQTYICNVNHKPSNTKVDKKVEPKSCDKTHTCPPCPAPDLLGKDSVFLFPPKPKDTLMISRTPEVTCVVIDVAEEDGEVKFNWYVDGVEVHNAKTKPREEQDNSTYRVVSVLTVLHQDWLNGKEYKCKVSNKALPRPIEKTISKAKGQPREPQVYTLPPSRDELTKNQVSLTCLVKGFYPSDIAVEWESNGQPENNYKTTPMVLDSDGSFFLYSKLTVDKSRWQQGNVFSCSVMHEALHNHYTQKSLSLSP light: not shown
9 | 5.2 | 13.7 | IL6R-P645/IL6R-L (antibody, human IgG1, kappa) heavy: QVQLQESGPGLVKPSETLSLTCAVSGHSISHDHAWSWVRQPPGEGLEWIGFISYSGITNYNPSLQGRVTISRDNSKNTLYLQMNSLRAEDTAVYYCARSLARTTAMDYWGEGTLVTVSSASTKGPSVFPLAPSSKSTSGGTAALGCLVKDYFPEPVTVSWNSGALTSGVHTFPAVLQSSGLYSLSSVVTVPSSSLGTQTYICNVNHKPSNTKVDKKVEPKSCDKTHTCPPCPAPDLLGDDSVFLFPPKPKDTLMISRTPEVTCVVIKVAEEDGEVKFNWYVDGVEVHNAKTKPREEQDNSTYRVVSVLTVLHQDWLNGKEYKCKVSNKALPRPIEKTISKAKGQPREPQVYTLPPSRDELTKNQVSLTCLVKGFYPSDIAVEWESNGQPENNYKTTPMVLDSDGSFFLYSKLTVDKSRWQQGNVFSCSVMHEALHNHYTQKSLSLSP light: not shown
10 | 72.5 | 175 | IL6R-P646/IL6R-L (antibody, human IgG1, kappa) heavy: QVQLQESGPGLVKPSETLSLTCAVSGHSISHDHAWSWVRQPPGEGLEWIGFISYSGITNYNPSLQGRVTISRDNSKNTLYLQMNSLRAEDTAVYYCARSLARTTAMDYWGEGTLVTVSSASTKGPSVFPLAPSSKSTSGGTAALGCLVKDYFPEPVTVSWNSGALTSGVHTFPAVLQSSGLYSLSSVVTVPSSSLGTQTYICNVNHKPSNTKVDKKVEPKSCDKTHTCPPCPAPDLLGDDSVFLFPPKPKDTLMISRTPEVTCVVINVAEEDGEVKFNWYVDGVEVHNAKTKPREEQDNSTYRVVSVLTVLHQDWLNGKEYKCKVSNKALPRPIEKTISKAKGQPREPQVYTLPPSRDELTKNQVSLTCLVKGFYPSDIAVEWESNGQPENNYKTTPMVLDSDGSFFLYSKLTVDKSRWQQGNVFSCSVMHEALHNHYTQKSLSLSP light: not shown
11 | 5.6 | 15.2 | IL6R-P647/IL6R-L (antibody, human IgG1, kappa) heavy: QVQLQESGPGLVKPSETLSLTCAVSGHSISHDHAWSWVRQPPGEGLEWIGFISYSGITNYNPSLQGRVTISRDNSKNTLYLQMNSLRAEDTAVYYCARSLARTTAMDYWGEGTLVTVSSASTKGPSVFPLAPSSKSTSGGTAALGCLVKDYFPEPVTVSWNSGALTSGVHTFPAVLQSSGLYSLSSVVTVPSSSLGTQTYICNVNHKPSNTKVDKKVEPKSCDKTHTCPPCPAPDLLGDDSVFLFPPKPKDTLMISRTPEVTCVVIRVAEEDGEVKFNWYVDGVEVHNAKTKPREEQDNSTYRVVSVLTVLHQDWLNGKEYKCKVSNKALPRPIEKTISKAKGQPREPQVYTLPPSRDELTKNQVSLTCLVKGFYPSDIAVEWESNGQPENNYKTTPMVLDSDGSFFLYSKLTVDKSRWQQGNVFSCSVMHEALHNHYTQKSLSLSP light: not shown
